# Source: patent US20160331840A1
# Target: InlB (recombinant His-tagged InlB321 peptide, aa 36-321 of internalin B) (Listeria monocytogenes)
# Test: FACS competition; InlB pre-incubated with soluble MET peptide at 1:1 molar ratio
substance,measurement,value
"MET peptide (soluble peptide derived from the extracellular, ligand-binding domain of MET; YCP2247 SPEED BioSystems) (from UniProt P08581 25-932) (receptor)",percent reduction of InlB binding to H1993 cells,50%
